*1 amine or outer side, *2 acyl side, *3 side chain or, on linkers, in order; H or OH if unused. Bridges are numbered along the chain shown (N, C = ends). Where no end group is shown, it is not given here. [ ]: non-standard residue; d: D form. The star is where a group is joined. 12302 = turn inducer derived from (2S,4R)-Fmoc-4-amino-1-BOC-pyrrolidine-2-carboxylic acid, O=C([C@@H]1C[C@@H](N[*:1])CN1[*:3])[*:2]; Isovaleryl = CC(C)CC(=O)*
Columns and labels:
Type in all cases: binding
[1] = target: T1, rat sodium channel 1.2 (rNav1.2) (Rattus norvegicus, UniProt P04775); assay: rat Nav1.2 channel assay: competitive inhibition of 125H-TIIIA from rat brain homogenate; conditions: single concentration 10 μM
T1 construct: from tissue; host or cells: rat brain homogenate / rat brain membrane
Procedure: A homogeneous assay was used to determine the ability of compounds to act as inhibitors of the rat sodium channel 1.2 (rNav1.2) as measured by competitive inhibition of ^125H-TIIIA from rat brain homogenate.
Total assay volume was 80 μL (20 μL competing ligand, 20 μL, SPA beads, 20 μL rat brain homogenate and 20 μL iodinated ligand). Assay buffer used was HEPES (20 mM pH7.2), MgCl2 (75 mM), EDTA (0.2 mM), EGTA (0.2 mM), BSA (0.1%) and 2% diluted protease inhibitors (Roche cat #1826145). Peptides were initially screened at a single concentration of 10 μM. […] The competing ligands were added to the assay plate followed by Flashblue GPCR scintillating beads at a concentration of 100 μg/well (Perkin Elmer cat #FBB001), rat brain membrane and 30 pM ^125H-TIIIA. After the addition of all reagents the plate was sealed and incubated at RT for 1 h with shaking. The plate was then counted on a Wallac Microbeta instrument.

[2] = target: T2, human norepinephrine transporter (hNET) (Homo sapiens, UniProt P23975); conditions: single concentration 10 μM, 3H-nisoxetine displacement
T2 construct: purchased Perkin Elmer Life Sciences RBHNETM400UA
Procedure: The ability of compounds to act as inhibitors of the human norepinephrine transporter (hNET) was measured by competitive inhibition of ^3H-nisoxetine from membrane expressing hNET.
Total assay volume 150 μL (50 μL peptide conjugate, 50 μL tritiated compound and 50 μL membrane) with each data point performed in triplicate. Assay buffer used was TrisHCl (50 mM, pH 7.4), NaCl (120 mM) and KCl (5 mM). Peptide conjugates were initially screened at a single concentration of 10 μM. […] After the addition of the membrane the assay was incubated for 1 h at RT after which the reaction was filtered onto GF filtermats B (Perkin Elmer cat #1450-521) pretreated with 0.6% PEI using a Tomtec cell harvester and washed 3 times using wash buffer (20 mM HEPES pH 7.4, 125 mM NaCl @ 4° C.). Filtermats were then dried, placed in a filter bag, 9 mL betaplate scintillant (Perkin Elmer cat #1205-440) added and filtermats counted on a Wallac Microbeta instrument.

[3] = target: T3, human delta2 Opioid Receptor (hδ2OR) (Homo sapiens, UniProt P41143); assay: hδ2OR assay: competitive inhibition of 3H-Naltrindole from membrane expressing hδ2OR; conditions: single concentration 10 μM
T3 construct: purchased Perkin Elmer Life Sciences RPNQ001
Procedure: A homogeneous assay was used to determine the ability of compounds to act as inhibitors of the hδ2OR as measured by competitive inhibition of ^3H-Naltrindole from membrane expressing hδ2OR.
Total assay volume was 80 μL (20 μL competing ligand, 20 μL SPA beads, 20 μL, membrane and 20 μL tritiated ligand). Assay buffer used was Tris HCl (50 mM, pH 7.4), MgCl2 (5 mM) and BSA (0.1%). Peptides were initially screened at a single concentration of 10 μM. Confirmation of any hits was performed using full dose response of the peptide using various concentrations (10^−4 to 10^−11M) or control ligand (Naltriben). The competing ligands were added to the assay plate followed by SPA beads at a concentration of 100 μg/well (GE Healthcare, Amersham Cat. #FBB001) and […] (Perkin Elmer Life Sciences Cat #RPNQ001). This was followed by 1.6 nM […] [for a final concentration 0.4 nM] (Perkin Elmer Cat #NET1065), after which the plate was sealed and incubated at RT for 1 hr with shaking. The plate was then counted on a Wallac Microbeta instrument.

T3 sequence (P41143 whole entry): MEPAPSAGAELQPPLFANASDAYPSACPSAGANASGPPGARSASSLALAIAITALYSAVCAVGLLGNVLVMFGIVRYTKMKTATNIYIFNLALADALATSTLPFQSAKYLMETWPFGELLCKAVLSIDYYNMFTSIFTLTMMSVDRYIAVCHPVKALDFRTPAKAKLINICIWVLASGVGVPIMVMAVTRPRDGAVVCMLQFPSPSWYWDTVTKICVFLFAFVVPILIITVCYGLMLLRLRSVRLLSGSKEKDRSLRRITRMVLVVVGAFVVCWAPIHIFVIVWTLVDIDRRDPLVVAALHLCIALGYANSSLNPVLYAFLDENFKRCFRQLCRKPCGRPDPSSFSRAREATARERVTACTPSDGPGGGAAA
T2 sequence (P23975 whole entry): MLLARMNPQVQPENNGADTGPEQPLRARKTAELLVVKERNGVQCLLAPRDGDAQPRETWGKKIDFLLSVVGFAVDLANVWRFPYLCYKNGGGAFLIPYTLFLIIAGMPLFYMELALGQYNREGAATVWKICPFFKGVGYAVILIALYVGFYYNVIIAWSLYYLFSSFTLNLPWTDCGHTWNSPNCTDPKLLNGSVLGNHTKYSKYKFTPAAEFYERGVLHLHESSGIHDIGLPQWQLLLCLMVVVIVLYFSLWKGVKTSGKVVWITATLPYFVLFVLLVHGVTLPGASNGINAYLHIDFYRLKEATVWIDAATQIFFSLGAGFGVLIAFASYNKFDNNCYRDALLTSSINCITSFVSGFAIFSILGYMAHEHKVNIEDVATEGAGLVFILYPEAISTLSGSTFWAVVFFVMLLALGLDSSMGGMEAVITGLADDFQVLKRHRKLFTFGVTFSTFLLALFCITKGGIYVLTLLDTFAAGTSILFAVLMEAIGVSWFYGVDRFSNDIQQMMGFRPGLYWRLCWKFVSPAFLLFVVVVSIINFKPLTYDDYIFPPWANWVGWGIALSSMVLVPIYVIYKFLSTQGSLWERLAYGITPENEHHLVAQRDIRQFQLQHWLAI
T1 sequence (P04775 whole entry): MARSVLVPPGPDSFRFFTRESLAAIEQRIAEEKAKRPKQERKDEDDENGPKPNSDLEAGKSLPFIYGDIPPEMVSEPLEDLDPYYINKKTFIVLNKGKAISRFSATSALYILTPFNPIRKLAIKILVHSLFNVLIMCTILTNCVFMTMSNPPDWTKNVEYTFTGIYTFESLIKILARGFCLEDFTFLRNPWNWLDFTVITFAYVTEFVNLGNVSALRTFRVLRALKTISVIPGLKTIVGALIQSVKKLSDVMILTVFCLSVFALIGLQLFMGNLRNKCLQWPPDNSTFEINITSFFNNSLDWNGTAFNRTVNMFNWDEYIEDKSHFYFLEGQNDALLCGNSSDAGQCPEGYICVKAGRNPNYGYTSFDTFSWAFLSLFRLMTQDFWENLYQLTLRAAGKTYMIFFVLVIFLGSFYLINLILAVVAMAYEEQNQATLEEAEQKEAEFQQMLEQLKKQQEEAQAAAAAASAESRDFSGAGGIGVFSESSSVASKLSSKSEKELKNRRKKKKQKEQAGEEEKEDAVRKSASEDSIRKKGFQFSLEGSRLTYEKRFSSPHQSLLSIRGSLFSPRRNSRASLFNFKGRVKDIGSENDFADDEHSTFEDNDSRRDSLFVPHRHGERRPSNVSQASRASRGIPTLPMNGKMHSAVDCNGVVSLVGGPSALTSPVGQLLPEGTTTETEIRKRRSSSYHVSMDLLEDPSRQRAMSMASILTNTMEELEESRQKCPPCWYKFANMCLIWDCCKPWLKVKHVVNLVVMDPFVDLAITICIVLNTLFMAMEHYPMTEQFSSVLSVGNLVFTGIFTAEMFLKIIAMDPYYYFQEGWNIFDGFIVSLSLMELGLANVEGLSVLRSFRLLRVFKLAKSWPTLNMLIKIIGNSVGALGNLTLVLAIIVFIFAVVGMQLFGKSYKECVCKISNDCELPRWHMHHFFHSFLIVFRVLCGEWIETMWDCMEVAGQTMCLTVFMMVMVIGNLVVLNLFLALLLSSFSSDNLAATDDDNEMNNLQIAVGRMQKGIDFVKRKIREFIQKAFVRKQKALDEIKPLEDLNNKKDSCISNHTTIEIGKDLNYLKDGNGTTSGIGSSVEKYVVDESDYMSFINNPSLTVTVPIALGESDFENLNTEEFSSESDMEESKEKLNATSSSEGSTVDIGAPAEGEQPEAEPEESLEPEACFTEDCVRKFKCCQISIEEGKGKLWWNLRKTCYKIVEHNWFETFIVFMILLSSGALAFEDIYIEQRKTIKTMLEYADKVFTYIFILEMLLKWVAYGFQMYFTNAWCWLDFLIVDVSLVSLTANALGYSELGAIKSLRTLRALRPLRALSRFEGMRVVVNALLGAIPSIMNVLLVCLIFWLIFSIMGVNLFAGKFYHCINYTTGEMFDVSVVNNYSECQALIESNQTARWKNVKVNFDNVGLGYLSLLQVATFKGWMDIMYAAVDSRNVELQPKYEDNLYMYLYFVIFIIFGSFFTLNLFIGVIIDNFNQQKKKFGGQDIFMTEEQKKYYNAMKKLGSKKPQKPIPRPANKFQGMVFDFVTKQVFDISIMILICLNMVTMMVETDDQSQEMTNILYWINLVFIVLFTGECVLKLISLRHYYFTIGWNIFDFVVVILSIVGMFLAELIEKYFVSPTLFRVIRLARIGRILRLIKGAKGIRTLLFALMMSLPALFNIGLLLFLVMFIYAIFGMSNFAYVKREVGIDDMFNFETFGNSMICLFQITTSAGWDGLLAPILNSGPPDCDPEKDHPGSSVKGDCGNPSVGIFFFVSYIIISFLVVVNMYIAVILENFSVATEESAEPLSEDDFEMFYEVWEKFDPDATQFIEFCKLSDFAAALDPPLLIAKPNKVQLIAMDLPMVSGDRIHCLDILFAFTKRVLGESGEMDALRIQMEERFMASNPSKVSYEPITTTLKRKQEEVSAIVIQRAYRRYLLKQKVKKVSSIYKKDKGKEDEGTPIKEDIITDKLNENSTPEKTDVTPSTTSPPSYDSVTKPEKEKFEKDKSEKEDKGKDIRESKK

Row | Substance | % inhib @ 10 μM [1] | % inhib @ 10 μM [2] | % inh @ 10 μM [3]
1 | 6 (CV[H2NNH:CHNH(CH2)3CO]KC; disulfide 1-5 (inferred); not fully specified) [compound 6] | >70% | 94% | –
2 | 46 (CF[12302](cyclohex‑CH2—CO)YC; disulfide 1-5 (inferred)) [compound 46] | – | – | >80%
3 | 47 (CF[12302](Isovaleryl)YC; disulfide 1-5 (inferred)) [compound 47] | – | – | >80%
